From US20250129150A1

Target: recombinant human C1q (human) (UniProt P02745)
Assay: SPR, antibody captured on anti-kappa chip, C1q as analyte; signal relative to rituximab

Chain of Lebrikizumab (Construct 1) (antibody; other documents disagree on this pair) (heavy): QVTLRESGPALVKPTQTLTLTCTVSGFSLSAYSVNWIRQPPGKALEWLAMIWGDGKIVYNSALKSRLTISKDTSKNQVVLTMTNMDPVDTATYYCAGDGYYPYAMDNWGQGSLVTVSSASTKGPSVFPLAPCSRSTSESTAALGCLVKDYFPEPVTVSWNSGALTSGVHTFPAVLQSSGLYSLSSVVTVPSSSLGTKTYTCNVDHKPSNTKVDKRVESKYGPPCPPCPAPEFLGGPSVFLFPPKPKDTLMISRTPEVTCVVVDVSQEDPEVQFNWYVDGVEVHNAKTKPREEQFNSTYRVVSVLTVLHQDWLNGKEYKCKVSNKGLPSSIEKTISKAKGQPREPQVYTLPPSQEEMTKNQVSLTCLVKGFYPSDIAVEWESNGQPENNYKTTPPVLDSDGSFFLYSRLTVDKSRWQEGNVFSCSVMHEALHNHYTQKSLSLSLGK
Chain of Lebrikizumab (Construct 1) (antibody; other documents disagree on this pair) (light): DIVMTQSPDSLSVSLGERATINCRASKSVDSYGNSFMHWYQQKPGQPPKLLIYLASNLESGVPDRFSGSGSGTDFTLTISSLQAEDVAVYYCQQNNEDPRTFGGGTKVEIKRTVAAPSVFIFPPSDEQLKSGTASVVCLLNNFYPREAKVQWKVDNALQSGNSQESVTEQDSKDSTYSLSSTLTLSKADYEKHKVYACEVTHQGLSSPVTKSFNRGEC
Chain of recombinant human C1q (human) (P02745 23-245 limits assumed, chain 1 of 3): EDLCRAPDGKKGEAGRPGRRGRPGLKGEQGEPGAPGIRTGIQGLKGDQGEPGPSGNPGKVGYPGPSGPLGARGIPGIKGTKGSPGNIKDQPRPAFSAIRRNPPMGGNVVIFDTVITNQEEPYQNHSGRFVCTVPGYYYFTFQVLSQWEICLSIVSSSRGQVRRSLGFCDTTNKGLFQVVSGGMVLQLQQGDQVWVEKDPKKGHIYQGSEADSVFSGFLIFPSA
Chain of recombinant human C1q (human) (P02746 28-253 limits assumed, chain 2 of 3, further chain): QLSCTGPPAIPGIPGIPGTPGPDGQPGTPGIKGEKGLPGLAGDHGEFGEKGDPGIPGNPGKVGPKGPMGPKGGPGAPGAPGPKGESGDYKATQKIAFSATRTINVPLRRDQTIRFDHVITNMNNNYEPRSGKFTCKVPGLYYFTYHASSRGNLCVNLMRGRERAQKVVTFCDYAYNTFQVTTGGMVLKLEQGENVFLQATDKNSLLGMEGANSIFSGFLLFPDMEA
Chain of recombinant human C1q (human) (P02747 29-245 limits assumed, chain 3 of 3, further chain): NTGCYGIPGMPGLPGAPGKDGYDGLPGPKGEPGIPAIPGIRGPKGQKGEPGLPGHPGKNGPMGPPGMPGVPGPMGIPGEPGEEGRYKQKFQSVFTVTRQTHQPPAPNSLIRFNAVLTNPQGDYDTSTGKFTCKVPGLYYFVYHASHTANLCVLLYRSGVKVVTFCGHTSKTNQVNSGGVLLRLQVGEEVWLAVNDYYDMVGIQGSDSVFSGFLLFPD

C1q (Signal Relative to Rituximab): 39.6%
Substance: Lebrikizumab (Construct 1) (antibody; other documents disagree on this pair)
